Experimental data as given in patent US20220332795A1 (ARO BIOTHERAPEUTICS, published 2022).

Assays:
CD71 apical domain [1] = molecular target: T1, CD71 apical domain (UniProt P02786 189-383, limits assumed); assay: solution ELISA
T1 construct: domain: Apical domain

[2] = molecular target: T2, recombinant biotinylated human CD71 extracellular domain (human, UniProt P02786 89-760, biotinylated); assay: solution ELISA
T2 construct: extracellular domain; also called hCD71; huCD71 ECD

CD71 apical domain [3] = molecular target: T1, CD71 apical domain; assay: solution ELISA, signal ratio to HSA
[4] = molecular target: T2, recombinant biotinylated human CD71 …; assay: solution ELISA, signal ratio to HSA

T1 sequence (P02786 189-383 limits assumed): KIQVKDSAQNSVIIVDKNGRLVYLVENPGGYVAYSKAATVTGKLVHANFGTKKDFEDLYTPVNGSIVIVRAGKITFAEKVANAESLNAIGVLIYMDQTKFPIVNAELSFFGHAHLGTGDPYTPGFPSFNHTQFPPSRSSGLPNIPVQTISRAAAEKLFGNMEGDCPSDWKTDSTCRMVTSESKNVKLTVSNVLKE
T2 sequence (P02786 other isoform, or with tags, fused parts or gaps): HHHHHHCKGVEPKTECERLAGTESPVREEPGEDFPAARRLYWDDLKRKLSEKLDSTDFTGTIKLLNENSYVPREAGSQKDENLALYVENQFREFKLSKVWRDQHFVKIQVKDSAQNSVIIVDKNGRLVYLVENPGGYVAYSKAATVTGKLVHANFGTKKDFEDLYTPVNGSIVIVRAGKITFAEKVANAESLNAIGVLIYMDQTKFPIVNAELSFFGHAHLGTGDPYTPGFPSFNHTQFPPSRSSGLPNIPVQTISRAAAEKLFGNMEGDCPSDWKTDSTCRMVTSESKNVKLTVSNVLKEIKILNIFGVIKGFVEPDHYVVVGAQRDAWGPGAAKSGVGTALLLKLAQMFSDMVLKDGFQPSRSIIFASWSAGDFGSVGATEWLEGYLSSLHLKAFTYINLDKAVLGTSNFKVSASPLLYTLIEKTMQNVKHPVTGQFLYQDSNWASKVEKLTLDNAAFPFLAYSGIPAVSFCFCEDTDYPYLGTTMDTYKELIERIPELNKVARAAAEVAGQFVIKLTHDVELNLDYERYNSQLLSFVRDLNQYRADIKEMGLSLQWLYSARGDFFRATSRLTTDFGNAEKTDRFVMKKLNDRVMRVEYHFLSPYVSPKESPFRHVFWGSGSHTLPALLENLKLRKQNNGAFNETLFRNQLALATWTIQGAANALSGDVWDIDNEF

| Apical domain, RLU (CD71 apical domain [1]) [RLU] | hCD71, RLU [2] [RLU] | apical domain:HSA (CD71 apical domain [3]) | hCD71:HSA [4] | Binder |
| --- | --- | --- | --- | --- |
| 3.88e+06 | 653000 | 366 | 61.6 | SEQ ID NO 180 (designed binder, FN3 domain) MLPAPKNLVVSRVTEDSARLSWTAPDAAFDSFYIAYAEPRPDGEAIALLVPGSERSYDLTGLKPGTEYSVLIHGVKGGLLSSPLVAQFTT |
| 6.95e+06 | 1.13e+06 | 310 | 50.3 | SEQ ID NO 183 (designed binder, FN3 domain) MLPAPKNLVVSRVTEDSARLSWTAPDAAFDSFYIAYAEPRPDGEAILLDVPGSERSYDLTGLKPGTEYSVLIHGVKGGFPSMPLSAIFTT |
| 7.35e+06 | 4.27e+06 | 177 | 103 | SEQ ID NO 195 (designed binder, FN3 domain) MLPAPKNLVVSRVTEDSARLSWTAPDAAFDSFYIAYAEPRPDGEAIILDVPGSERSYDLTGLKPGTEYSVLIHGVKGGLLSSPLSSIFTT |
| 5.24e+06 | 358000 | 195 | 13.3 | SEQ ID NO 188 (designed binder, FN3 domain) MLPAPKNLVVSRVTEDSARLSWTAPDAAFDSFYIAYAEPRPDGEAIGLGVPGSERSYDLTGLKPGTEYSVLIHGVKGGLLSSPLDASFTT |
| 5.93e+06 | 2.13e+06 | 235 | 84.6 | SEQ ID NO 196 (designed binder, FN3 domain) MLPAPKNLVVSRVTEDSARLSWTAPDAAFDSFYIAYAEPRPDGEAIVLWVPGSERSYDLTGLKPGTEYSVLIHGVKGGLLSSPLRASFTT |
| 6.12e+06 | 1.71e+06 | 219 | 61.2 | SEQ ID NO 193 (designed binder, FN3 domain) MLPAPKNLVVSRVTEDSARLSWTAPDAAFDSFYIAYAEPRPDGEAISLSVPGSERSYDLTGLKPGTEYSVLIHGVKGGLLSSPLIANFTT |
| 5.38e+06 | 844000 | 322 | 50.6 | SEQ ID NO 186 (designed binder, FN3 domain) MLPAPKNLVVSRVTEDSARLSWTAPDAAFDSFYIAYAEPRPDGEAIQLGVPGSERSYDLTGLKPGTEYSVLIHGVKGGLLSSPLSAIFTT |
| 4.78e+06 | 682000 | 273 | 39 | SEQ ID NO 194 (designed binder, FN3 domain) MLPAPKNLVVSRVTEDSARLSWTAPDAAFDSFYIAYAEPRPDGEAIALLVPGSERSYDLTGLKPGTEYSVLIHGVKGGLLSSPLSAIVTT |
| 2.84e+06 | 197000 | 209 | 14.5 | SEQ ID NO 182 (designed binder, FN3 domain) MLPAPKNLVVSRVTEDSARLSWTAPDAAFDSFYIAYAEPRPDGEAIDLHVPGSERSYDLTGLKPGTEYSVLIHGVKGGLLSSPLHALFTT |
| 98900 | 2.57e+06 | 0.8 | 21.5 | SEQ ID NO 189 (designed binder, FN3 domain) MLPAPKNLVVSRVTEDSARLSWTAPDAAFDSFYIAYAEPRPDGEAIQLTVPGSERSYDLTGPKPGTEYWVLIQGVKGGGSSVPLVAYFTT |
| 4.89e+06 | 385000 | 208 | 16.4 | SEQ ID NO 190 (designed binder, FN3 domain) MLPAPKNLVVSRVTEDSARLSWTAPDAAFDSFYIAYAEPRPDGEAISLDVPGSERSYDLTGLKPGTEYSVLIHGVKGGLLSSPLEASFTT |
| 5.46e+06 | 652000 | 369 | 44 | SEQ ID NO 185 (designed binder, FN3 domain) MLPAPKNLVVSRVTEDSARLSWTAPDAAFDSFYIAYAEPRPDGEAIYLGVPGSERSYDLTGLKPGTEYSVLIHGVKGGLLSSPLRAKFTT |
